Measurements reported in patent US20200317768A1 (published 2020).

Tests used:
[1] = target: T1, cynomolgus monkey FcγRIIa1 extracellular domain, C-terminal His-tag (cynomolgus monkey); experiment: SPR (BIACORE); KD of parent SG1 / KD of variant;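 also: relative to parent M103205H795-SG1 carrying the SG1 human heavy chain constant region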
T1 construct: also called cyno FcγRIIa1; cynoFcgRIIa1; not shown: His-tag added to C-terminus
T1 chain: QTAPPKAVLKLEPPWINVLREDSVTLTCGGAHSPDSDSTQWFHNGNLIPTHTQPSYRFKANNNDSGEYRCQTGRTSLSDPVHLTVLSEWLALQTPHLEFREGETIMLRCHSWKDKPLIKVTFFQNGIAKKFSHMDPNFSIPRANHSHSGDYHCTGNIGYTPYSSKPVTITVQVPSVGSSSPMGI
Protocol: (§1) The kinetic analysis of interactions between these antibodies and FcγR was carried out using BIACORE® T200 or BIACORE® 4000 (GE Healthcare). HBS-EP+ (GE Healthcare) was used as the running buffer, and the measurement temperature was set to 25° C. A chip produced by immobilizing Protein A. Protein A/G or mouse anti-human IgG kappa light chain (BD Biosciences) onto a Series S Sensor Chip CM4 or CM5 (GE Healthcare) by the amine-coupling method was used. […] After the measurement, the antibody captured on the chip was washed off by allowing reaction with 10 mM glycine-HCl, pH1.5 and 25 mM NaOH so that the chip was regenerated and used repeatedly. The sensorgrams obtained as measurement results were analyzed by the 1:1 Langmuir binding model using the BIACORE® Evaluation Software to calculate the binding rate constant ka (L/mol/s) and dissociation rate constant kd (l/s), and the dissociation constant KD (mol/L) was calculated from these values. […] Regarding such interactions, KD values were calculated using the following 1:1 binding model described in BIACORE® T100 Software Handbook BR1006-48 Edition AE.

[2] = target: T2, human FcγRIIaR extracellular domain, C-terminal His-tag (human, UniProt P12318 34-217); experiment: SPR (BIACORE); KD of parent SG1 / KD of variant;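 also: relative to parent M103205H795-SG1 carrying the SG1 human heavy chain constant region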
T2 construct: also called human FcγRIIa (type R); FcgRIIaR; not shown: His-tag added to C-terminus
T2 chain: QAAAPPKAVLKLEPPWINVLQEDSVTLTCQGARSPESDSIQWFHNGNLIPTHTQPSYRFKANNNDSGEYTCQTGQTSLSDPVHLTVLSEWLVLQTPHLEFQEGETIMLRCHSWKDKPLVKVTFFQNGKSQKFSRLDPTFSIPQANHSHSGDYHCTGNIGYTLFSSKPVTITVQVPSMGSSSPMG
Protocol: as §1

[3] = target: T3, cynomolgus monkey FcγRIIa2 extracellular domain, C-terminal His-tag (cynomolgus monkey); experiment: SPR (BIACORE); KD of parent SG1 / KD of variant;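 also: relative to parent M103205H795-SG1 carrying the SG1 human heavy chain constant region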
T3 construct: also called cyno FcγRIIa2; cynoFcgRIIa2; not shown: His-tag added to C-terminus
T3 chain: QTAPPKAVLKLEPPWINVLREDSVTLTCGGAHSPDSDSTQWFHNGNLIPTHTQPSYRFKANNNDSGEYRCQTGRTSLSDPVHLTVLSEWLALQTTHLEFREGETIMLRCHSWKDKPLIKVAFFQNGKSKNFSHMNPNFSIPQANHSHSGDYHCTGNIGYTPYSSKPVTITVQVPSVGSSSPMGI
Protocol: as §1

[4] = target: T4, cynomolgus monkey FcγRIIb extracellular domain, C-terminal His-tag (cynomolgus monkey); experiment: SPR (BIACORE); KD of parent SG1 / KD of variant;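 also: relative to parent M103205H795-SG1 carrying the SG1 human heavy chain constant region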
T4 construct: also called cyno FcγRIIb; cynoFcγRIIb; not shown: His-tag added to C-terminus
T4 chain: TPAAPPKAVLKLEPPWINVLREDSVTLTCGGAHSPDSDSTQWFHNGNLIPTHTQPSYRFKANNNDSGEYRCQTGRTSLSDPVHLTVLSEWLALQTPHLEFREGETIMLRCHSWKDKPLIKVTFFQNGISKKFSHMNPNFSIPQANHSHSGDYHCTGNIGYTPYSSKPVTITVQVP
Protocol: as §1

[5] = target: T5, cynomolgus monkey FcγRIIa3 extracellular domain, C-terminal His-tag (cynomolgus monkey); experiment: SPR (BIACORE); KD of parent SG1 / KD of variant
T5 construct: also called cyno FcγRIIa3; cynoFcgRIIa3; not shown: His-tag added to C-terminus
T5 chain: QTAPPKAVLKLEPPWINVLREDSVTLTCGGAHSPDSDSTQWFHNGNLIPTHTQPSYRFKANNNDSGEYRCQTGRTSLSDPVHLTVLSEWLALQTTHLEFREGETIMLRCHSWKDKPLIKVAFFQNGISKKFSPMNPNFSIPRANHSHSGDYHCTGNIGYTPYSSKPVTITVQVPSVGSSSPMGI
Protocol: as §1

[6] = target: T6, human FcγRIIIaV extracellular domain, C-terminal His-tag (human, UniProt P08637 17-208); experiment: SPR (BIACORE); KD of parent SG1 / KD of variant
T6 construct: also called FcgRIIIaV; not shown: His-tag added to C-terminus
Protocol: as §1

[7] = target: T7, cynomolgus monkey FcγRIIIaS extracellular domain, C-terminal His-tag (cynomolgus monkey, UniProt A3RFZ7 21-206 (rhesus entry)); experiment: SPR (BIACORE); KD of parent SG1 / KD of variant
T7 construct: also called cyno FcγRIIIaS; cynoFcγRIIIaS; not shown: His-tag added to C-terminus
Protocol: as §1

[8] = target: T8, human FcγRIIaH extracellular domain, C-terminal His-tag (human, UniProt P12318 34-217); experiment: SPR (BIACORE); KD of parent SG1 / KD of variant
T8 construct: also called human FcγRIIa (type H); FcgRIIaH; not shown: His-tag added to C-terminus
T8 sequence: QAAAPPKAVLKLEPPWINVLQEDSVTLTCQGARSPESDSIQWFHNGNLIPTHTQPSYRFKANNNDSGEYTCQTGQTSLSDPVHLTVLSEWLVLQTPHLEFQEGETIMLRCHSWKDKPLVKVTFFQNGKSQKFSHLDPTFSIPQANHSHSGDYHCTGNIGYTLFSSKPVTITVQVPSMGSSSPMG
Protocol: as §1

[9] = target: T9, human FcγRIIb extracellular domain, C-terminal His-tag (human, UniProt P31994 43-217); experiment: SPR (BIACORE); KD of parent SG1 / KD of variant
T9 construct: also called humanFcgRIIb; not shown: His-tag added to C-terminus
T9 sequence: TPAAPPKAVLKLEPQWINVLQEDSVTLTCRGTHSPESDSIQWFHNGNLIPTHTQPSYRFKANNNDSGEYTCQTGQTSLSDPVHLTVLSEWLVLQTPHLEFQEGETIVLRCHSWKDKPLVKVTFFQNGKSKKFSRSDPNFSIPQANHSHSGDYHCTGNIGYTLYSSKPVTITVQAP
Protocol: as §1

[10] = target: T1, cynomolgus monkey FcγRIIa1 …; experiment: SPR (BIACORE), antibody captured, FcγR analyte
Protocol: as §1

[11] = target: T2, human FcγRIIaR extracellular domain, …; experiment: SPR (BIACORE), antibody captured, FcγR analyte
Protocol: as §1

[12] = target: T3, cynomolgus monkey FcγRIIa2 …; experiment: SPR (BIACORE), antibody captured, FcγR analyte
Protocol: as §1

[13] = target: T4, cynomolgus monkey FcγRIIb extracellular …; experiment: SPR (BIACORE), antibody captured, FcγR analyte
Protocol: as §1

[14] = target: T5, cynomolgus monkey FcγRIIa3 …; experiment: SPR (BIACORE), antibody captured, FcγR analyte
Protocol: as §1

[15] = target: T6, human FcγRIIIaV extracellular domain, …; experiment: SPR (BIACORE), antibody captured, FcγR analyte
Protocol: as §1

[16] = target: T7, cynomolgus monkey FcγRIIIaS …; experiment: SPR (BIACORE), antibody captured, FcγR analyte
Protocol: as §1

[17] = target: T8, human FcγRIIaH extracellular domain, …; experiment: SPR (BIACORE), antibody captured, FcγR analyte
Protocol: as §1

[18] = target: T9, human FcγRIIb extracellular domain, …; experiment: SPR (BIACORE), antibody captured, FcγR analyte
Protocol: as §1

T7 sequence (A3RFZ7 21-206): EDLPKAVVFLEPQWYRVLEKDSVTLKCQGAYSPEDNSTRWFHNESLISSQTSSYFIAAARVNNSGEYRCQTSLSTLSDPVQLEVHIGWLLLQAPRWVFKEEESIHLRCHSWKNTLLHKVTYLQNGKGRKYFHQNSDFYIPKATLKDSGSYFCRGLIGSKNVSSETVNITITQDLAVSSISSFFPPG
T6 sequence (P08637 17-208 F176V): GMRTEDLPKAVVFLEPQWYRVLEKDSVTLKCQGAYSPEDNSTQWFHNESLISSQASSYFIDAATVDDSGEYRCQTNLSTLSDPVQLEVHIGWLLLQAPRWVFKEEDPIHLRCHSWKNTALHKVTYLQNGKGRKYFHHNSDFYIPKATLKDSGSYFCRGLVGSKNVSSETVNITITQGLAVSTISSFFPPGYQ

Binder	KD fold (SG1 = 1) [1] [fold]	KD fold (SG1 = 1) [2] [fold]	KD fold (SG1 = 1) [3] [fold]	KD fold (SG1 = 1) [4] [fold]	KD fold (SG1 = 1) [5] [fold]	KD fold (SG1 = 1) [6] [fold]	KD fold (SG1 = 1) [7] [fold]	KD fold (SG1 = 1) [8] [fold]	KD fold (SG1 = 1) [9] [fold]	Kd [10] [nM]	Kd [11] [nM]	Kd [12] [nM]	Kd [13] [nM]	Kd [14] [nM]	Kd [15] [nM]	Kd [16] [nM]	Kd [17] [nM]	Kd [18] [nM]
M103240H795-SG1071 / M103202L1045-SK1 (antibody, CH with G236N/H268D/Q295L/Q311R/A330K/D413K/M428L/N434A/Y436T/Q438R/S440E against SG1 (EU numbering); also called MS1032LO19-SG1071) heavy: QVQLVESGGGLVQPGGSLRLSCAVSGIDLSHDDISWVRQAPGKGLEWVSIISYAGSTYYASWAKGRLTISKDTSKNQVVLTMTNMDPVDTATYYCARGVPAYSHGGDLWGQGTLVTVSSASTKGPSVFPLAPSSKSTSGGTAALGCLVKDYFPEPVTVSWNSGALTSGVHTFPAVLQSSGLYSLSSVVTVPSSSLGTQTYICNVNHKPSNTKVDKKVEPKSCDKTHTCPPCPAPELLNGPSVFLFPPKPKDTLMISRTPEVTCVVVDVSDEDPEVKFNWYVDGVEVHNAKTKPREELYNSTYRVVSVLTVLHRDWLNGKEYKCKVSNKALPKPIEKTISKAKGQPREPQVYTLPPSREEMTKNQVSLTCLVKGFYPSDIAVEWESNGQPENNYKTTPPVLDSDGSFFLYSKLTVKKSRWQQGNVFSCSVLHEALHAHTTRKELSLSP light: DIVMTQSPATLSLSPGERATLSCTTSQSVYHENWLSWFQQKPGQPPKLLIYWASTLAYGVPSRFSGSGSGTDFTLTISSLQPEDAATYYCAGGYGGGRYAFGQGTKVEIKRTVAAPSVFIFPPSDEQLKSGTASVVCLLNNFYPREAKVQWKVDNALQSGNSQESVTEQDSKDSTYSLSSTLTLSKADYEKHKVYACEVTHQGLSSPVTKSFNRGEC	3	0.8	3.2	5.3	3.1	0.04	0.07	1.4	5.6	1200	1200	1500	530	2100	14000	5800	690	680
M103240H795-SG1074 / M103202L1045-SK1 (antibody, CH with G236N/H268D/Q295L/Q311R/K326T/A330K/P343R/M428L/N434A/Y436T/Q438R/S440E against SG1 (EU numbering); also called MS1032LO19-SG1074) heavy: QVQLVESGGGLVQPGGSLRLSCAVSGIDLSHDDISWVRQAPGKGLEWVSIISYAGSTYYASWAKGRLTISKDTSKNQVVLTMTNMDPVDTATYYCARGVPAYSHGGDLWGQGTLVTVSSASTKGPSVFPLAPSSKSTSGGTAALGCLVKDYFPEPVTVSWNSGALTSGVHTFPAVLQSSGLYSLSSVVTVPSSSLGTQTYICNVNHKPSNTKVDKKVEPKSCDKTHTCPPCPAPELLNGPSVFLFPPKPKDTLMISRTPEVTCVVVDVSDEDPEVKFNWYVDGVEVHNAKTKPREELYNSTYRVVSVLTVLHRDWLNGKEYKCKVSNTALPKPIEKTISKAKGQRREPQVYTLPPSREEMTKNQVSLTCLVKGFYPSDIAVEWESNGQPENNYKTTPPVLDSDGSFFLYSKLTVDKSRWQQGNVFSCSVLHEALHAHTTRKELSLSP light: DIVMTQSPATLSLSPGERATLSCTTSQSVYHENWLSWFQQKPGQPPKLLIYWASTLAYGVPSRFSGSGSGTDFTLTISSLQPEDAATYYCAGGYGGGRYAFGQGTKVEIKRTVAAPSVFIFPPSDEQLKSGTASVVCLLNNFYPREAKVQWKVDNALQSGNSQESVTEQDSKDSTYSLSSTLTLSKADYEKHKVYACEVTHQGLSSPVTKSFNRGEC	5.4	1.8	6.1	11.1	6.2	0.18	0.19	2.2	10.2	700	540	680	160	1100	4500	1400	450	380
